This is an account of results in PMC7113858 (Journal of Virological Methods, 2017).

Where a chain is given by its changes, count along the chain named. Like-named read-outs stand apart in the source and are kept apart here.

The target of assay [1] is T1, mouse Fc-tagged RBD of MERS-CoV (MERS-CoV, strain not named; EMC/2012 …, UniProt K0BRG7).
For the next assay, the target named is S protein of MERS-CoV (MERS-CoV, strain not named; EMC/2012 …, UniProt K0BRG7).
The target in assay [2] is receptor-binding domain (RBD) of the SARS-CoV S protein, amino acids 318-510, histidine-tagged (SARS-CoV, strain , UniProt P59594). Briefly: ELISA. On the technique in general: An ELISA detects its analyte on a solid surface through an enzyme-linked reagent.
Assay [3] concerns the target T1, mouse Fc-tagged RBD of MERS-CoV. Briefly: immunostaining of cells or tissue.
Assay [4] addresses mouse Fc-tagged RBD of Bt-CoV-HKU4 (Bat coronavirus HKU4 (BtCoV/HKU4/2004), UniProt A3EX94). Briefly: immunostaining of cells or tissue.
The next assay has as its target N protein of MERS-CoV (MERS-CoV, strain , UniProt K9N4V7). As to the kind of experiment: immunostaining of cells or tissue.
Assay [5] deals with mouse Fc-tagged RBD of Bt-CoV-HKU5 (Bat coronavirus HKU5 (BtCoV/HKU5/2004), UniProt A3EXD0). Briefly: immunostaining of cells or tissue.

B1: 43A9 (antibody, V domains shown)
VH: QVQLQQSGAELARPGASVKLSCNASGYIFSSYWMQWVKQRPGQGLEWIGAIYPGDGDTRYSQKFRGKATVTADKSSSTAYMQLSSLASADSAVYYCARFGDGYYYPMDYWGQGTSVTVSS
VL: DIVMTQAAPSVPVTPGESVSISCRSSKSLLHSNGNTYLYWFLQRPGQSPQLLIYRMSNLASGVPDRFSGSGSGTAFTLRISRVEAEDVGVYYCMQHLEYPFTFGSGTKLEIK
For B1, the binding result (in assay [1]; in the assay with S protein of MERS-CoV) was “binds” each time.

B2: MAb 45E11 (antibody, V domains shown)
VH: QVQLKESGPGLVAPSQSLSITCTVSGFSLTGFGVNWVRQPPGKGLEWLGMIWGDGGTDYNSTLKSRLSFSKDNSKSQVFLKMNSLQTDDTARYYCARAAGTGDYFDYWGQGTTLTVSS
VL: DIQMTQSPASLSASVGETVTITCRASENIYSYLAWYQQKQGKSPQLLVYNAKTLAEGVPSRFSGSGSGTQFSLKINSLQPEDFGSYYCQHHYGTPWTFGGGTKLEIK
Take B2: the binding result in assay [2] was “no binding”; in assay [3], “binds”; in assay [4], “no binding”; with N protein of MERS-CoV it was “no binding”; in assay [5], “no binding”.

B3: MAb 45C2 (antibody, V domains shown)
VH: B2 VH with F32Y, T62A, F69I, S70T, Q86L, T87P
VL: B2 VL with Y30D, S63G, N76Y, S85N
Consider B3, for which the binding result in assay [2] was “no binding”; in assay [3] it was “binds”; in assay [4] it was “no binding”; with N protein of MERS-CoV, “no binding”; in assay [5], “no binding”.
